This passage reports optical density results from patent US20210380703A1.

B1: 367_F08 (antibody, V domains shown)
VH: EVQLLESGGGLVQPGGSLRLSCAASGFTFSSYGMHWVRQAPGKGLEWVSSINYNSGYTSYADSVKGRFTISRDNSKNTLYLQMNSLRAEDTAVYYCARAATWHDTHLDYWGQGTLVTVSS
VL: DIQMTQSPSSLSASVGDRVTITCRASQSILSYVNWYQQKPGKAPKLVIYAATSRASGVPSRFSGSGSGTDFTLTISSLQPEDFATYYCQQSNELPLTFGGGTKVEIK
B2: 374_A03 (antibody, V domains shown)
VH: B1 VH with S30D, G33S, H35N, S50N, S55G, A99S
VL: B1 VL with S31T, V33L, V47L, N92Y, E93D, L94N
B3: 367_H04 (antibody, V domains shown)
VH: B1 VH with G33S, H35N, S55G, A99S
VL: B1 VL with S31T, V47L, A55H, N92D, E93N, L94N
B4: 368_D06 (antibody, V domains shown)
VH: B1 VH with H35N, S50N, S55G, S59G
VL: B1 VL with A55H, N92Y, L94N
B5: 368_C07 (antibody, V domains shown)
VH: B1 VH with S49A, S50G
VL: B1 VL with L30V, N92Y, L94N
B6: 370_A08 (antibody, V domains shown)
VH: B1 VH with S30D, G33S, H35N, S59G, A99S
VL: B1 VL with L30V, S31T, V33L, N92Y, E93D
B7: 375_F01 (antibody, V domains shown)
VH: B1 VH with G33S, H35N, S59G, A99S
VL: B1 VL with L30V, V33L, N92Y, E93D, L94N
B8: 371_B10 (antibody, V domains shown)
VH: B1 VH with S30D, G33S, H35N, S50N, S55G, S59G, A99S
VL: B1 VL with L30V, V47L, N92Y, E93D
B9: 373_D02 (antibody, V domains shown)
VH: B1 VH with G33S, H35N, S50N, T58K, S59G, A99S
VL: B1 VL with V33L, V47L, R54L, N92Y, E93D
B10: 369_E09 (antibody, V domains shown)
VH: B1 VH with S30D, G33S, H35N, S50N, T58K, S59G, A99S
VL: B1 VL with V33L, N92Y, E93D
B11: 368_G11 (antibody, V domains shown)
VH: B1 VH with S30D, S50G, T58K, H106A
VL: B1 VL with S31T, V33L, V47L, N92D, E93N, L94T
B12: 374_E06 (antibody, V domains shown)
VH: B1 VH with S30D, G33S, H35N, T58K, S59G, A99S
VL: B1 VL with V33L, V47L, N92Y, E93D
B13: 370_A10 (antibody, V domains shown)
VH: B1 VH with S31D, G33S, H35N, T58K, S59G, A99S
VL: B1 VL with V47L, R54L, N92Y, E93D, L94T
B14: 368_G07 (antibody, V domains shown)
VH: B1 VH with G33S, S55G, A99S
VL: B1 VL with L30V, N92Y, E93D, L94T
B15: 367_G03 (antibody, V domains shown)
VH: B1 VH with S30D, G33S, S49A, S50N, S55G
VL: B1 VL with L30V, A55H, N92Y, E93D
B16: 365_E03 (antibody, V domains shown)
VH: B1 VH with S30D, G33S, H35N, S50N, S55G, S59G, A99S
VL: B1 VL with S31T, V47L, R54L, A55H, N92D, L94R
B17: 365_G02 (antibody, V domains shown)
VH: B1 VH with S31D, G33S, H35N, S50N, T58K, S59G, A99S
VL: B1 VL with L30V, S31T, V33L, A51V, R54L, A55H, N92Y
B18: 368_H03 (antibody, V domains shown)
VH: B1 VH with S30D, S31D, G33S, S49A, S55G, S59G
VL: B1 VL with A51V, A55H, N92Y, E93S, L94N
B19: 367_H08 (antibody, V domains shown)
VH: B1 VH with S30D, H35N, S55G
VL: B1 VL with S31T, V47L, A55H, N92Y, E93N
B20: 369_A04 (antibody, V domains shown)
VH: B1 VH with S30D, S49A, S55G, T58K
VL: B1 VL with L30V, R54L, N92Y, E93D
B21: 365_D06 (antibody, V domains shown)
VH: B1 VH with S30D, G33S, H35N, S50N, S55G, A99S
VL: B1 VL with S31T, V47L, N92Y, E93S
B22: 370_D07 (antibody, V domains shown)
VH: B1 VH with H35N, S50N, S59G, A99S
VL: B1 VL with R54L, N92Y, L94S
B23: 374_G01 (antibody, V domains shown)
VH: B1 VH with S30D, G33S, H35N, S50N, A99S
VL: B1 VL with S31T, V47L, A51T, A55H, N92Y, E93N
B24: 374_D11 (antibody, V domains shown)
VH: B1 VH with S30D, H35N, S50N, S59G, A99S
VL: B1 VL with S31T, V33L, V47L, N92Y, L94T
B25: 368_G08 (antibody, V domains shown)
VH: B1 VH with S30D, S31D, H35N, T58K, A99S
VL: B1 VL with L30V, V47L, A55H, N92Y, E93N, L94N
B26: 373_A07 (antibody, V domains shown)
VH: B1 VH with G33S, H35N, S50N, S55G, S59G, A99S
VL: B1 VL with S31T, V47L, N92D, E93N
B27: 369_G09 (antibody, V domains shown)
VH: B1 VH with S30D, G33S, H35N, S50N, S55G, S59G, A99S
VL: B1 VL with L30V, S31T, V33L, V47L, N92Y, E93D
B28: 371_F12 (antibody, V domains shown)
VH: B1 VH with S30D, G33S, H35N, S50N, S55G, T58K, A99S
VL: B1 VL with L30I, V33L, V47L, E93N
B29: 375_G12 (antibody, V domains shown)
VH: B1 VH with S30D, S55G, A99S
VL: B1 VL with L30V, V47L, A55H, N92Y, E93D, L94T
B30: 375_G10 (antibody, V domains shown)
VH: B1 VH with H35N, S55G, T58K, A99S
VL: B1 VL with L30V, S31T, V33L, A55H, N92Y, E93D, L94T
B31: 374_E03 (antibody, V domains shown)
VH: B1 VH with G33S, H35N, S50N, T58K, S59G, A99S
VL: B1 VL with S31T, R54L, N92Y, E93D, L94T
B32: 366_C03 (antibody, V domains shown)
VH: B1 VH with S30D, H35N, S50N, S55G, S59G, A99S
VL: B1 VL with V33L, N92Y, E93S, L94N
B33: 374_A08 (antibody, V domains shown)
VH: B1 VH with S30D, G33S, H35N, S50N, A99S
VL: B1 VL with L30V, S31T, V33L, V47L, R54L, N92Y, E93D
B34: 368_B12 (antibody, V domains shown)
VH: B1 VH with S30D, S50G
VL: B1 VL with L30V, V47L, N92Y, E93D
B35: 365_E04 (antibody, V domains shown)
VH: B1 VH with S30D, S49A, S55G, T58K, T101N, H106A
VL: B1 VL with V47L, R54L, N92Y
B36: 365_A02 (antibody, V domains shown)
VH: B1 VH with S30D, G33S, H35N, S50N, S55G, A99S
VL: B1 VL with S31T, V47L, N92Y, E93N, L94S
B37: 367_F10 (antibody, V domains shown)
VH: B1 VH with S30D, H35N, S50G
VL: B1 VL with S31T, V33L, V47L, N92Y, E93D, L94T
B38: 368_H10 (antibody, V domains shown)
VH: B1 VH with G33S, H35N, T58K, S59G, A99S
VL: B1 VL with L30V, A51V, R54L, N92Y, L94T
B39: 368_E08 (antibody, V domains shown)
VH: B1 VH with S30D, S49A, S50N, S59G
VL: B1 VL with R54L, A55H, N92Y, L94T
B40: 374_C07 (antibody, V domains shown)
VH: B1 VH with S30D, G33S, H35N, S50N, S55G, A99S
VL: B1 VL with L30I, V33L, V47L, N92D
B41: 374_G12 (antibody, V domains shown)
VH: B1 VH with S30D, S31D, H35N, S55G, T58K, A99S
VL: B1 VL with S31T, R54L, N92Y, E93N, L94S
B42: 367_D02 (antibody, V domains shown)
VH: B1 VH with S30D, S31D, G33S, H35N, S50N, S55G, A99S
VL: B1 VL with L30V, S31T, V47L, N92Y, L94N
B43: 368_C12 (antibody, V domains shown)
VH: B1 VH with S30D, S49A, S55G
VL: B1 VL with S31T, V33L, V47L, N92D, E93S, L94N
B44: 366_C07 (antibody, V domains shown)
VH: B1 VH with G33S, H35N, S50N, S55G, A99S
VL: B1 VL with S31T, V47L, N92Y, E93N, L94S
B45: 368_B04 (antibody, V domains shown)
VH: B1 VH with S30D, S55G
VL: B1 VL with L30V, V33L, N92Y, L94N

Numbering of substitutions follows the chain as printed.

The assay concerns the target human Fc (human). Description: ELISA, negative control. (In general: ELISA stands for enzyme-linked immunosorbent assay.)
B1 showed an optical density of 0.299 OD. On to B2, for which the optical density was found to be 0.178 OD. For B3 the value was 0.289 OD.

In the case of B4, the optical density was found to be 0.265 OD. Under B5 stands 0.282 OD. For B6 the value was 0.319 OD. B7 gave an optical density of 0.166 OD. For B8 the value was 0.387 OD. Consider B9, for which the optical density stood at 0.18 OD.

B10 came in with an optical density of 0.278 OD. For B11 the value was 0.306 OD; for B12, 0.191 OD. As for B13, the optical density amounted to 0.434 OD.

B14 came in with an optical density of 0.29 OD.

In turn, B15 had an optical density of 0.341 OD.

With B16, the optical density stood at 0.314 OD.

As to B17, the optical density was 0.325 OD.

B18 registered an optical density of 0.343 OD. Regarding B19, the optical density was 0.312 OD.

Consider B20, for which the optical density turned out to be 0.353 OD. Under B21 stands 0.319 OD; under B22, 0.309 OD. Under B23 stands 0.161 OD.

Molecule B24 gave an optical density of 0.162 OD.

In turn, B25 came in with an optical density of 0.329 OD. Under B26 stands 0.177 OD; under B27, 0.395 OD; under B28, 0.413 OD.

Regarding B29, the optical density stood at 0.199 OD. Molecule B30 had an optical density of 0.175 OD. Under B31 stands 0.176 OD; under B32, 0.274 OD; under B33, 0.16 OD. For B34 the value was 0.567 OD; for B35, 0.46 OD. Under B36 stands 0.374 OD; under B37, 0.253 OD; under B38, 0.281 OD.

For the molecule B39, the optical density came out at 0.255 OD.

B40 had an optical density of 0.225 OD. For B41 the value was 0.214 OD; for B42, 0.321 OD. For B43 the value was 0.346 OD. Under B44 stands 0.301 OD; under B45, 0.304 OD.
